# Positions count from the first letter of the chain named. Positions of bridges follow the written chain, without caps; N, C: chain ends. Non-standard residues stand in square brackets, D forms with d. No end group written: not given here. *: point of attachment. Acetyl(2-(4-imidazolyl)) = O=C(Cc1c[nH]cn1)*; Aib = CC(C)(N)C(=O)O
# T1: human GIP receptor (human, UniProt P48546 22-466)
# T1 sequence (looked up): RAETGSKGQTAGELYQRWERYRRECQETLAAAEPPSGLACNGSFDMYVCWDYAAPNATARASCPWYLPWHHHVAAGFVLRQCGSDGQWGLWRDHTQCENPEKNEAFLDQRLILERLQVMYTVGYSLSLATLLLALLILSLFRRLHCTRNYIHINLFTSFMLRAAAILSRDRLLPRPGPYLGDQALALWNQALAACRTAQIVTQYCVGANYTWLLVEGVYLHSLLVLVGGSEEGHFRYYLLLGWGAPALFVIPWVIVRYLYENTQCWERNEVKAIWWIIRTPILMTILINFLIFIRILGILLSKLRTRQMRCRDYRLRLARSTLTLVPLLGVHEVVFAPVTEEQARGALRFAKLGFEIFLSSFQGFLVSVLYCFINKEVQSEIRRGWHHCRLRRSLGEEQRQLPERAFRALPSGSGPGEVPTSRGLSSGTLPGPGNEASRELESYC
# B1: trigonal agonist of SEQ ID NO: 54 (peptide)
# peptide: H[Aib]EGTFTSDYSIAMDEIHQKDFVDWLLAEC
# modifications: bridge 16-20
# B2: trigonal agonist of SEQ ID NO: 49 (peptide)
# peptide: {Acetyl(2-(4-imidazolyl))}-[Aib]QGTFTSDYSICMDEIHQKDFVNWLLNTK
# modifications: bridge 15-19
# B3: trigonal agonist of SEQ ID NO: 39 (peptide)
# peptide: H[Aib]QGTFTSDYSKYLDGQHAQCFVAWLLAGGGPSSGAPPPS
# B4: trigonal agonist of SEQ ID NO: 40 (peptide)
# peptide: H[Aib]QGTFTSDKSKYLDERACQDFVQWLLDGGPSSGAPPPS
# B5: trigonal agonist of SEQ ID NO: 59 (peptide)
# peptide: {Acetyl(2-(4-imidazolyl))}-[Aib]QGTFTSDYSICMDEKHQKDFVNWLLNTK
# modifications: bridge 15-19
# B6: trigonal agonist of SEQ ID NO: 51 (peptide)
# peptide: H[Aib]QGTFTSDYSKYLDEKRQKEFVQWLLNTC
# modifications: bridge 16-20
# B7: trigonal agonist of SEQ ID NO: 53 (peptide)
# peptide: H[Aib]EGTFTSDYSIAMDEIHQKDFVNWLLAQC
# modifications: bridge 16-20
# B8: trigonal agonist of SEQ ID NO: 4 (peptide)
# peptide: H[Aib]QGTFTSDVSSYLLGQQQKEFIAWLVKGC
# B9: trigonal agonist of SEQ ID NO: 6 (peptide)
# peptide: H[Aib]QGTFTSDVSSYLDGQAAKEFVAWLLKGC
# B10: trigonal agonist of SEQ ID NO: 52 (peptide)
# peptide: H[Aib]QGTFTSDYSKYLDEKRQKEFVQWLLDTC
# modifications: bridge 16-20
# B11: trigonal agonist of SEQ ID NO: 42 (peptide)
# peptide: Y[Aib]QGTFTSDYSKYLDEKRAKEFVQWLLDHHPSSGQPPPSC
# modifications: bridge 16-20
# B12: trigonal agonist of SEQ ID NO: 58 (peptide)
# peptide: H[Aib]QGTFTSDYSKYLDEKRQKEFVQWLLNTKC
# modifications: bridge 16-20
# B13: trigonal agonist of SEQ ID NO: 57 (peptide)
# peptide: H[Aib]QGTFTSDYSIAMDEIHQKDFVNWLLNTC
# modifications: bridge 16-20
# B14: trigonal agonist of SEQ ID NO: 35 (peptide)
# peptide: H[Aib]QGTFTSDYSIAMDEIHQKDFVNWLLNTKC
# modifications: bridge 16-20
# B15: trigonal agonist of SEQ ID NO: 38 (peptide)
# peptide: {Acetyl(2-(4-imidazolyl))}-[Aib]QGTFTSDKSSYLDERAAQDFVQWLLDGGPSSGAPPPSS
# B16: trigonal agonist of SEQ ID NO: 43 (peptide)
# peptide: Y[Aib]QGTFTSDYSKYLDEKRAKEFVQWLLDHHCSSGQPPPS
# modifications: bridge 16-20
# B17: trigonal agonist of SEQ ID NO: 5 (peptide)
# peptide: H[Aib]QGTFTSDVSSYLLGQQQKEFIAWLVKGGGPSSGAPPPSC
# B18: trigonal agonist of SEQ ID NO: 34 (peptide)
# peptide: H[Aib]QGTFTSDYSKYLDEKRQKEFVNWLLAQKC
# modifications: bridge 16-20
# B19: trigonal agonist of SEQ ID NO: 1 (peptide)
# peptide: H[Aib]QGTFTSDVSSYLDGQAAKEFIAWLVKGC
# B20: trigonal agonist of SEQ ID NO: 37 (peptide)
# peptide: H[Aib]QGTFTSDYSKYLDECRQKEFVQWLLNGGPSSGAPPPSG
# modifications: bridge 16-20
# B21: trigonal agonist of SEQ ID NO: 50 (peptide)
# peptide: H[Aib]QGTFTSDYSKYLDEKRAKEFVQWLLDHHPSSGQPPPSC
# modifications: bridge 16-20
# B22: trigonal agonist of SEQ ID NO: 44 (peptide)
# peptide: HGQGTFTSDCSKQLDGQAAQEFVAWLLAGGPSSGAPPPS
# B23: trigonal agonist of SEQ ID NO: 46 (peptide)
# peptide: B22 peptide with Q13Y, G16E, A18H
# B24: trigonal agonist of SEQ ID NO: 48 (peptide)
# peptide: B22 peptide with Q13Y, A18R, E21D, A24N
# B25: trigonal agonist of SEQ ID NO: 45 (peptide)
# peptide: B22 peptide with Q13Y, L14M, E21D
# B26: trigonal agonist of SEQ ID NO: 47 (peptide)
# peptide: B22 peptide with Q13Y, A18R
# B27: trigonal agonist of SEQ ID NO: 56 (peptide)
# peptide: H[Aib]QGTFTSDYSKYLDEKRQKEFVNWLLAQC
# modifications: bridge 16-20
# B28: trigonal agonist of SEQ ID NO: 36 (peptide)
# peptide: H[Aib]QGTFTSDYSKYLCEKRQKEFVQWLLNGGPSSGAPPPSG
# modifications: bridge 16-20
# B29: trigonal agonist of SEQ ID NO: 41 (peptide)
# peptide: H[Aib]QGTFTSDKSKYLDECAAQDFVQWLLDGGPSSGAPPPS
# B30: trigonal agonist of SEQ ID NO: 55 (peptide)
# peptide: H[Aib]QGTFTSDYSIAMDEIHQKDFVNWLLAQC
# modifications: bridge 16-20
# Molecular target: human GLP-1 receptor (human, UniProt P43220 24-463)
# Assay: cell-based or functional assay
row,Binder,"In vitro activity relative to native peptide (%), vs. GLP-1 (cAMP EC50) [%]"
1,B1,30.6
2,B2,29.8
3,B3,13.9
4,B4,75.2
5,B5,40.3
6,B6,14.4
7,B7,161
8,B8,8.5
9,B9,17
10,B10,44.1
11,B11,33.9
12,B12,39.1
13,B13,11.7
14,B14,7.5
15,B15,2.3
16,B16,12.6
17,B17,42.1
18,B18,19.1
19,B19,3.2
20,B20,236
21,B21,67.4
22,B22,1.3
23,B23,1.4
24,B24,1.5
25,B25,6.6
26,B26,2.4
27,B27,57.9
28,B28,37.4
29,B29,34.3
30,B30,27.1

# Molecular target: human GCG receptor (human, UniProt P47871 26-477)
# Sequence (P47871 26-477): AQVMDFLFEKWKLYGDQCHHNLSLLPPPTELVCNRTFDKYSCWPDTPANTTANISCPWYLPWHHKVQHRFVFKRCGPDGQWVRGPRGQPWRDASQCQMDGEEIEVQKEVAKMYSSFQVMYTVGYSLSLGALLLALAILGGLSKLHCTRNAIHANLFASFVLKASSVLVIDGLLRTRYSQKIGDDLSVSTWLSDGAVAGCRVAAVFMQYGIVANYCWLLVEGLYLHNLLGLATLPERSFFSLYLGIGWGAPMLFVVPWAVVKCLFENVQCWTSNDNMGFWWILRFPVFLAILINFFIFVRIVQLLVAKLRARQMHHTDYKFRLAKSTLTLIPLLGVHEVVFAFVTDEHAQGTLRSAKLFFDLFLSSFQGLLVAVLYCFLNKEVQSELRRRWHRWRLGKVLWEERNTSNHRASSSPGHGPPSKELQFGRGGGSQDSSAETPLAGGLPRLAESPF
# Assay: cell-based or functional assay
row,Binder,"In vitro activity relative to native peptide (%), vs. Glucagon (cAMP EC50) [%]"
1,B1,1.4
2,B2,< 0.1
3,B3,0.53
4,B4,< 0.1
5,B5,< 0.1
6,B6,2
7,B7,8.4
8,B8,< 0.1
9,B9,< 0.1
10,B10,7.5
11,B11,206
12,B12,2.6
13,B13,< 0.1
14,B14,< 0.1
15,B16,88.4
16,B17,< 0.1
17,B18,0.92
18,B19,< 0.1
19,B20,6.21
20,B21,50.5
21,B22,< 0.1
22,B23,< 0.1
23,B24,< 0.1
24,B25,< 0.1
25,B26,< 0.1
26,B27,4.9
27,B28,0.39
28,B29,< 0.1
29,B30,0.7

# Molecular target: T1, human GIP receptor
# Assay: cell-based or functional assay
row,Binder,"In vitro activity relative to native peptide (%), vs. GIP (cAMP EC50) [%]"
1,B1,0.1
2,B2,3.3
3,B3,< 0.1
4,B4,< 0.1
5,B5,4
6,B6,0.1
7,B7,1.3
8,B8,< 0.1
9,B9,< 0.1
10,B10,0.3
11,B11,7.8
12,B12,0.2
13,B13,0.3
14,B14,1.3
15,B16,3.7
16,B17,< 0.1
17,B18,0.6
18,B19,< 0.1
19,B20,2.2
20,B21,2.7
21,B22,< 0.1
22,B23,< 0.1
23,B24,< 0.1
24,B25,< 0.1
25,B26,< 0.1
26,B27,0.8
27,B28,0.2
28,B29,< 0.1
29,B30,2.4
